According to patent US20190284293A1, “COMBINATION THERAPY WITH ANTI-CD73 ANTIBODIES” (BRISTOL-MYERS SQUIBB COMPANY, priority 2016, published 2019):

Columns and labels:
Test in all cases: SPR, antibody binding to anti-his Fab captured FcgR-his (% Rmax)
Details in all cases: 1 μM antibody
[1] = biological target: CD16B-NA2 (FcgRIIIb-NA2) (Homo sapiens, UniProt O75015)
Description: (§1) The binding of antibodies to Fc gamma receptors (FcγRs or FcgRs) was studied using biosensor technologies including Biacore surface plasmon resonance (SPR) and Fortebio Biolayer Interferometry (BLI). SPR studies were performed on a Biacore T100 instrument (GE Healthcare) at 25° C. The Fab fragment from a murine anti-6×His antibody was immobilized on a CM5 sensor chip using EDC/NHS to a density of −3000 RU. Various his-tagged FcgRs (7 ug/ml) were captured via the C-terminal his-tag using a contact time of 30 s at 10 ul/min, and the binding of 1.0 μM antibody was evaluated in a running buffer of 10 mM NaPO4, 130 mM NaCl, 0.05% p20 (PBS-T) pH 7.1. FcgRs used for these experiments included CD64 (FcgRI), CD32a-H131 (FcgRIIa-H131), CD32a-R131 (FcgRIIa-R131), CD32b (FcgRIIb), CD16a-V158 (FcgRIIIa-V158), CD16b-NA1 (FcgRIIIb-NA1), and CD16B-NA2 (FcgRIIIb-NA2). BLI experiments were performed on a Fortebio Octet RED instrument (Pall, Fortebio) at 25° C. in 10 mM NaPO4, 130 mM NaCl, 0.05% p20 (PBS-T) pH 7.1. Antibodies were captured out of undiluted expression supernatants on protein A coated sensors, followed by the binding of 1 μM hCD32a-H131, hCD32a-R131, hCD32b, hCD16a-V158, or 0.1 μM hCD64 analytes.

[2] = biological target: T1, CD32b (FcgRIIb) (Homo sapiens, UniProt P31994)
T1 sequence (P31994 43-310): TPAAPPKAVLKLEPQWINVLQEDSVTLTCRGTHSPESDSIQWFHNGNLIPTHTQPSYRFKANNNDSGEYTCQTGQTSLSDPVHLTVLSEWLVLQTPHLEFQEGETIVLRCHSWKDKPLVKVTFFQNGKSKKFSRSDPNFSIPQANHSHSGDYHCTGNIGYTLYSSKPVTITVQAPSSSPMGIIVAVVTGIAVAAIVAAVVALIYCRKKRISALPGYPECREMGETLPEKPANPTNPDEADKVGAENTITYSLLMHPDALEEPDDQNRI
Description: as §1

[3] = biological target: T2, CD32a-R131 (FcgRIIa-R131) (Homo sapiens, UniProt P12318, H167R)
T2 sequence (P12318 34-217 H167R limits assumed): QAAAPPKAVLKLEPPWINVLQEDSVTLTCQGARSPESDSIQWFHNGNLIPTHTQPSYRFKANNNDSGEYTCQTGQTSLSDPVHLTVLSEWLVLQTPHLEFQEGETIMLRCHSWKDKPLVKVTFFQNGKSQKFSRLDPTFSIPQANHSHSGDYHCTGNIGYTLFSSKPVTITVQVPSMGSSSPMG
Description: as §1

[4] = biological target: CD16a-V158 (FcgRIIIa-V158) (Homo sapiens, UniProt P08637, F176V)
Description: as §1

[5] = biological target: T3, CD32a-H131 (FcgRIIa-H131) (Homo sapiens, UniProt P12318)
T3 sequence (P12318 34-217 limits assumed): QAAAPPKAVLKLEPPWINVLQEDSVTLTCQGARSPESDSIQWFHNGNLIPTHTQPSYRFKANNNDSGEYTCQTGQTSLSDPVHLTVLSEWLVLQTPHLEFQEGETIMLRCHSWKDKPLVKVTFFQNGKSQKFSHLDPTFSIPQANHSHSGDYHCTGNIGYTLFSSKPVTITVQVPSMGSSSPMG
Description: as §1

[6] = biological target: CD64 (FcgRI) (Homo sapiens, UniProt P12314)
Description: as §1

Chain of CD16a-V158 (FcgRIIIa-V158) (P08637 17-208 F176V limits assumed): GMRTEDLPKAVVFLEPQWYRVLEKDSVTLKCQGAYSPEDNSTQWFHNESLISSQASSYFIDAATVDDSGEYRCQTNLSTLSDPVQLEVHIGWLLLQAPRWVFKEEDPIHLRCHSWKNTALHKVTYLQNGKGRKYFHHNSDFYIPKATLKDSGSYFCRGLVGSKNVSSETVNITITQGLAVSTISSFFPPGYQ
Chain of CD16B-NA2 (FcgRIIIb-NA2) (O75015 17-200 limits assumed): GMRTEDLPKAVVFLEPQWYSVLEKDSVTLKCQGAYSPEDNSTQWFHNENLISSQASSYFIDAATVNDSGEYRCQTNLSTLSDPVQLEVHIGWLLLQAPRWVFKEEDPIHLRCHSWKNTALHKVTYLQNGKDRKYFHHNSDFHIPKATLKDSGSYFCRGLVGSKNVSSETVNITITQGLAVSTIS
Chain of CD64 (FcgRI) (P12314 16-374): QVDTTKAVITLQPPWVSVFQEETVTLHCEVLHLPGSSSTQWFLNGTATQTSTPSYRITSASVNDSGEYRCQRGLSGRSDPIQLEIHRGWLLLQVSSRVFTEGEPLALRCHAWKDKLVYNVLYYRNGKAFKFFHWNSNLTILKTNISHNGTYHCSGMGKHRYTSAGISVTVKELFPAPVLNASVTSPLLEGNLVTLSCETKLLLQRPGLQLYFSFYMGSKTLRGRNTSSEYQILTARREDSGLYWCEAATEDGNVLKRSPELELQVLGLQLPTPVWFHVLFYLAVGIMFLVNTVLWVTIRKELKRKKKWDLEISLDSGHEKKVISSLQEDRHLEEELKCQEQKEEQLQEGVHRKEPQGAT

B1: mAb7-IgG2.3G1-AY-V27 (protein)
constant: ASTKGPSVFPLAPCSRSTSESTAALGCLVKDYFPEPVTVSWNSGALTSGVHTFPAVLQSSGLYSLSSVVTVPSSNFGTQTYTCNVDHKPSNTKVDKTVERKSCVECPPCPAPELLGGPSVFLFPPKPKDTLMISRTPEVTCVVVDVEHEDPEVKFNWYVDGVEVHNAKTKPREEQYNSTYRVVSVLTVLHQDWLNGKEYKCKVSNKALPAPIEKTISKAKGQPREPQVYTLPPSREEMTKNQVSLTCLVKGFYPSDIAVEWESNGQPENNYKTTPPVLDSDGSFFLYSKLTVDKSRWQQGNVFSCSVMHEALHNHYTQKSLSLSPGK
modifications: left off: another chain or arm of the molecule
[1]
  % Rmax hCD16B-NA2: 7%
[2]
  % Rmax hCD32b: 76%
[3]
  % Rmax hCD32a-R131: 92%
[4]
  % Rmax hCD16a-V158: 26%
[5]
  % Rmax hCD32a-H131: 68%
[6]
  % Rmax hCD64: 84%

B2: mAb7-IgG2.5G1-AY-V27 (protein)
constant: ASTKGPSVFPLAPSSRSTSESTAALGCLVKDYFPEPVTVSWNSGALTSGVHTFPAVLQSSGLYSLSSVVTVPSSNFGTQTYTCNVDHKPSNTKVDKTVERKCCVECPPCPAPELLGGPSVFLFPPKPKDTLMISRTPEVTCVVVDVEHEDPEVKFNWYVDGVEVHNAKTKPREEQYNSTYRVVSVLTVLHQDWLNGKEYKCKVSNKALPAPIEKTISKAKGQPREPQVYTLPPSREEMTKNQVSLTCLVKGFYPSDIAVEWESNGQPENNYKTTPPVLDSDGSFFLYSKLTVDKSRWQQGNVFSCSVMHEALHNHYTQKSLSLSPGK
modifications: left off: another chain or arm of the molecule
[1]
  % Rmax hCD16B-NA2: 9%
[2]
  % Rmax hCD32b: 84%
[3]
  % Rmax hCD32a-R131: 89%
[4]
  % Rmax hCD16a-V158: 32%
[5]
  % Rmax hCD32a-H131: 74%
[6]
  % Rmax hCD64: 81%

B3: mAb8-IgG2.5G1-AY-V27 (protein)
constant: ASTKGPSVFPLAPSSRSTSESTAALGCLVKDYFPEPVTVSWNSGALTSGVHTFPAVLQSSGLYSLSSVVTVPSSNFGTQTYTCNVDHKPSNTKVDKTVERKCCVECPPCPAPELLGGPSVFLFPPKPKDTLMISRTPEVTCVVVDVEHEDPEVKFNWYVDGVEVHNAKTKPREEQYNSTYRVVSVLTVLHQDWLNGKEYKCKVSNKALPAPIEKTISKAKGQPREPQVYTLPPSREEMTKNQVSLTCLVKGFYPSDIAVEWESNGQPENNYKTTPPVLDSDGSFFLYSKLTVDKSRWQQGNVFSCSVMHEALHNHYTQKSLSLSPGK
modifications: left off: another chain or arm of the molecule
[1]
  % Rmax hCD16B-NA2: 10%
[2]
  % Rmax hCD32b: 77%
[3]
  % Rmax hCD32a-R131: 79%
[4]
  % Rmax hCD16a-V158: 33%
[5]
  % Rmax hCD32a-H131: 76%
[6]
  % Rmax hCD64: 77%
